Data on 5 molecules can be found in patent US20230051715A1 (MABWELL THERAPEUTICS, published 2023).

Changes are numbered by the printed parent chain. Numbers in names are those of the source.

The target of assay [1] is T1, human C1s deletion mutant 1 (M151) (human) (UniProt P09871).
T1 sequence: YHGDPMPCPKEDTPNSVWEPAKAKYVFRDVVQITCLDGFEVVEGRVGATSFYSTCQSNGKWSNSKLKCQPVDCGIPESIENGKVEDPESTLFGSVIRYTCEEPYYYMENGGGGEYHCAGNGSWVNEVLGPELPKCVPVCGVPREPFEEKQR
In words: ELISA, plate coated with 200 ng/well HuC1s(M151), OD450nm. In general terms: In an ELISA, binding on a coated surface is turned into a signal by an enzyme label.

Assay [2] concerns the target T2, full-length human C1s (produced in house) (human, UniProt P09871 16-688).
T2 construct: Called full-length; Partly auto-cleaved at R422-I423 on blots; also called HuC1s; Hu C1s
T2 sequence: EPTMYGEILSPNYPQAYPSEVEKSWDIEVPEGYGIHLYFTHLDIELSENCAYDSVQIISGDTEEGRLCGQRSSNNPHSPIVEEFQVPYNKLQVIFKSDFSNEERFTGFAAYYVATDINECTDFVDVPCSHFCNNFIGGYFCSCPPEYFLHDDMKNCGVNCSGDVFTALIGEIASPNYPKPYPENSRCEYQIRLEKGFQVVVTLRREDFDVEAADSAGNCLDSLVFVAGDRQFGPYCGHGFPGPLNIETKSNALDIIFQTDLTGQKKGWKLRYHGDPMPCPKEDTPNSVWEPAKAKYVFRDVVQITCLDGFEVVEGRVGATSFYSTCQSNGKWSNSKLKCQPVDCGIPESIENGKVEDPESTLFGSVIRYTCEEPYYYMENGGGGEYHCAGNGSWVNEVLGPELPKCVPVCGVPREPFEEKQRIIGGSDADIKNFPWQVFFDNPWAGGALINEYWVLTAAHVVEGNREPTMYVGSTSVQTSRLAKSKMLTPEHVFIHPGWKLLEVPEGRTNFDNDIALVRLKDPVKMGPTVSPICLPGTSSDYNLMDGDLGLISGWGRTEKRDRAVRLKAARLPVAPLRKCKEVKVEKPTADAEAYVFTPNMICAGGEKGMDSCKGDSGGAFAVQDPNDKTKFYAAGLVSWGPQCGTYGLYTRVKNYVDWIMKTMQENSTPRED
Nature of the assay: ELISA, plate coated with 200 ng/well full-length HuC1s, OD450nm. As to the method: (§1) ELISA was carried out by first coating 96-well plates with 200 ng/well of full-length or truncated C1s proteins overnight. The next morning, plates were blocked with SuperBlock T20 blocking buffer (Thermo Scientific 37536) for 1 h with gentle shaking. Then, various concentrations of anti-C1s antibodies diluted in SuperBlock T20 blocking buffer were added to the plates and incubated for 1 h with gentle shaking. Mouse IgG (Sigma-Aldrich 15381) and human IgG1 (BioXCell BP0297) were used as negative controls. The plates were washed before incubating with HRP conjugated secondary antibodies diluted in SuperBlock T20 blocking buffer (goat anti-mouse IgG (H+L) cross-adsorbed secondary antibody HRP (Invitrogen G-21040) or goat anti-human IgG antibody, HRP conjugate (Millipore AP309P)) for 1 h with gentle shaking. At last, the plates were washed and color developed with ELISA liquid HRP substrate (Sigma-Aldrich), followed by stopping the reaction with addition of 1M H₂SO₄ in the same volume as the ELISA liquid substrate. Bound antibody was measured by absorbance at OD₄₅₀ₙₘ.

The target of assay [3] is T3, human C1s mutant M4 (P280A & E282K) (human, UniProt P09871 16-688).
T3 construct: The entry is the mutant itself
T3 sequence: T2 sequence with P280A, E282K
In words: ELISA, plate coated with human C1s mutant M4: P280A, E282K, OD450nm. As to the method:
as §1
Binding of anti-C1s antibodies to mutants M1-M20 of human C1s was measured by ELISA as described in Example 4, and results are shown in FIGS. 6B-6U. All anti-C1s humanized variants including hz2-7(H1L2), hz2-8(H1L2 G80A) and hz2-8(H1L2 G80A/T82A) maintained strong binding properties to the majority (16 out of 20) of C1s mutants including M1 (FIG. 6B), M2 (FIG. 6C), M3 (FIG. 6D). M4 (FIG. 6E), M7 (FIG. 6H), M8 (FIG. 6I), M10 (FIG. 6K), M11 (FIG. 6L), M12 (FIG. 6M), M13 (FIG. 6N), M15 (FIG. 6P), M16 (FIG. 6Q), M17 (FIG. 6R), M18 (FIG. 6S), M19 (FIG. 6T) and M20 (FIG. 6U).

B1: Anti-C1s antibody 2-8 (antibody, V domains shown)
VH: EVQLQQSGAELVRPGALVKLSCKASGFNIKEYYMHWVKQRPEQGLEWIGWIDPENGDTIYDPKFQGKASITADTSSNTAYLQLSSLTSEDTAVYYCARSRLFFAYWGQGTLVTVSA
VL: DIVMTQSHKFMSTSVGDRVSFTCKASQDVRTAVDWYQQKPGQSPKLLIYSASYRYTGVPDRFTGTGSGTDFTFTISSVQAEDLAVYFCQQQYTTPYTFGGGTKLEIKT
notes: the HC/LC entries may hold it too; also called clone 2-8
Broadly, the EC50 is the concentration at which the effect is half-maximal. With B1, the values for the 50% effective concentration (EC50) in assay [1] and in assay [2] were 0.018 µg/mL and 0.008 µg/mL, respectively.

B2: Anti-C1s antibody hz2-7(H1L2) (antibody, V domains shown)
VH: EVQLLESGGGLVQPGGSLRLSCAASGFTFSNYFMNWVRQAPGKGLEWVSEIRLKFTNYATHYADSVKGRFTISRDDSKSTLYLQMNSLRAEDTAVYYCTRDYGSRNGYFDYWGQGTLVTVSS
VL: DIVMTQTPLSLPVTPGEPASISCRSSKSLLHSNGNTFLYWFLQKPGQSPQLLIYRMSNLASGVPDRFSGSGSGTDFTLKISRVEAEDVGVYYCMQHLEYPYTFGGGTKLEIKR
notes: Humanized, human IgG1 / kappa; also called hz2-7(1L2)
On to B2, for which the concentration giving a half-maximal response (EC50) in assay [3] was 0.013 µg/mL; in assay [1], 0.008 µg/mL; in assay [2] it was 0.005 µg/mL.

B3: Anti-C1s antibody hz2-8 (H1L2 G80A) (antibody, V domains shown)
VH: QVQLVQSGAEVKKPGASVKVSCKASGFNIKEYYMHWVRQAPEQGLEWMGWIDPENADTIYAQKFQGRVTITADTSTNTAYMELSSLRSEDTAVYYCARSRLFFAYWGQGTLVTVSS
VL: DIQMTQSPKSLSASVGDRVTITCRASQDVRTALDWYQQKPGQSPKLLIYSASYRYSGVPSRFSGSGSGTDFTLTISSLQPEDFATYYCQQQYTTPYTFGQGTKLEIKR
notes: Humanized variant with G80A in HC CDR2 (already in the entry), human IgG1 / kappa
In turn, B3 displayed a concentration for a half-maximal effect (EC50) in assay [3] of 0.01 µg/mL.

B4: Anti-C1s antibody hz2-8 (H1L2 G80A/T82A) (antibody, V domains shown)
VH: B3 VH with T58A
VL: B3 VL
notes: Humanized variant with G80A and T82A in HC CDR2 (already in the entry), human IgG1 / kappa
Turning to B4, the EC50 in assay [3] is 0.01 µg/mL.

B5: Anti-C1s antibody 2-7 (antibody, human IgG1, kappa, V domains shown)
VH: EVKLEESGGGLVPPGGSMKLSCVASGFTFSNYFMNWVRQSPEKGLEWVAEIRLKFTNYATHYAESVEGRFTISRDDSKSSVYLQMNNLRAEDTGIYYCTRDYGSRNGYFDYWGQGTTLTVSS
VL: DIVMTQAAPSVPVTPGESVSISCRSSKSLLHSNGNTFLYWFLQRPGQSPQLLIYRMSNLASGVPDRFSGSGSGTAFTLRVSRVEAEDVGIYYCMQHLEYPYTFGGGTKLEIKT
notes: the HC/LC entries may hold it too; also called clone 2-7
Take B5: the values for the EC50 in assay [1] and in assay [2] were 0.013 µg/mL and 0.006 µg/mL, respectively.
